In patent US7118879:
Where two headings read alike, the source gives them in different places.

Experiments:
[1] = biological target: human neutrophil elastase (immobilized on Reacti-Gel agarose beads, or free) (human) (UniProt P08246); experiment: pH elution of phage from HNE beads
[2] = biological target: anhydro-trypsin (agarose-immobilized) (UniProt P00760); experiment: 10 µl immobilized anhydro-trypsin, dot blot
[3] = biological target: human neutrophil elastase (immobilized on Reacti-Gel agarose beads, or free) (human) (UniProt P08246); experiment: HNE beads, sum of pH washes
[4] = biological target: anhydro-trypsin (agarose-immobilized) (UniProt P00760); experiment: 5 µl immobilized anhydro-trypsin slurry, 2 h
[5] = biological target: anhydro-trypsin (agarose-immobilized) (UniProt P00760); experiment: 2 µl immobilized anhydro-trypsin, dot blot
[6] = biological target: human neutrophil elastase (immobilized on Reacti-Gel agarose beads, or free) (human) (UniProt P08246); experiment: HNE beads, pH 4.0 wash
[7] = biological target: trypsin (active, immobilized on beads, or in solution) (UniProt P00760); experiment: trypsin beads
[8] = biological target: anhydro-trypsin (agarose-immobilized) (UniProt P00760); experiment: 5 µl immobilized anhydro-trypsin, dot blot
[9] = biological target: human neutrophil elastase (immobilized on Reacti-Gel agarose beads, or free) (human) (UniProt P08246); experiment: HNE beads, pH 7.0 wash
[10] = biological target: human neutrophil elastase (immobilized on Reacti-Gel agarose beads, or free) (human) (UniProt P08246); experiment: acid-eluted from HNE beads
[11] = biological target: trypsin (active, immobilized on beads, or in solution) (UniProt P00760); experiment: trypsin beads; remark: listed apart in the source
[12] = biological target: anhydro-trypsin (agarose-immobilized) (UniProt P00760); experiment: 10 µl immobilized anhydro-trypsin slurry, 1 h
[13] = biological target: anhydro-trypsin (agarose-immobilized) (UniProt P00760); experiment: 10 µl immobilized anhydro-trypsin slurry, 2 h
[14] = biological target: human neutrophil elastase (immobilized on Reacti-Gel agarose beads, or free) (human) (UniProt P08246); experiment: HNE beads, pH 2.2 elution
[15] = biological target: anhydro-trypsin (agarose-immobilized) (UniProt P00760); experiment: anhydrotrypsin beads, experiment 2
[16] = biological target: trypsin (active, immobilized on beads, or in solution) (UniProt P00760); experiment: acid-eluted from trypsin beads
[17] = biological target: anhydro-trypsin (agarose-immobilized) (UniProt P00760); experiment: anhydrotrypsin beads
[18] = biological target: trypsin (active, immobilized on beads, or in solution) (UniProt P00760); experiment: eluted from trypsin beads
[19] = biological target: human neutrophil elastase (immobilized on Reacti-Gel agarose beads, or free) (human) (UniProt P08246); experiment: HNE beads
[20] = biological target: anhydro-trypsin (agarose-immobilized) (UniProt P00760); experiment: eluted from anhydrotrypsin beads
[21] = biological target: protein A (agarose beads) (UniProt P38507); experiment: titer after protein A beads alone; batch 5
[22] = biological target: anhydro-trypsin (agarose-immobilized) (UniProt P00760); experiment: anhydrotrypsin beads, experiment 1
[23] = biological target: anhydro-trypsin (agarose-immobilized) (UniProt P00760); experiment: acid-eluted from anhydrotrypsin beads, experiment 1
[24] = biological target: anhydro-trypsin (agarose-immobilized) (UniProt P00760); experiment: titer after anhydrotrypsin beads
[25] = biological target: streptavidin (agarose-immobilized) (UniProt P22629); experiment: titer after streptavidin beads
[26] = biological target: human Cathepsin G (immobilized on agarose beads) (human) (UniProt P08311); experiment: Cat-G beads, pH 6.0 eluate
[27] = biological target: human Cathepsin G (immobilized on agarose beads) (human) (UniProt P08311); experiment: Cat-G beads, pH 5.0 eluate
[28] = biological target: human Cathepsin G (immobilized on agarose beads) (human) (UniProt P08311); experiment: Cat-G beads, pH 2.5 eluate
[29] = biological target: human Cathepsin G (immobilized on agarose beads) (human) (UniProt P08311); experiment: Cat-G beads, pH 5.5 eluate
[30] = biological target: human Cathepsin G (immobilized on agarose beads) (human) (UniProt P08311); experiment: Cat-G beads, pH 4.0 eluate
[31] = biological target: human Cathepsin G (immobilized on agarose beads) (human) (UniProt P08311); experiment: Cat-G beads, pH 7.0 eluate
[32] = biological target: human Cathepsin G (immobilized on agarose beads) (human) (UniProt P08311); experiment: Cat-G beads, all pH eluates
[33] = biological target: human Cathepsin G (immobilized on agarose beads) (human) (UniProt P08311); experiment: Cat-G beads, pH 4.5 eluate
[34] = biological target: human Cathepsin G (immobilized on agarose beads) (human) (UniProt P08311); experiment: Cat-G beads, final TBS-TWEEN wash
[35] = biological target: human Cathepsin G (immobilized on agarose beads) (human) (UniProt P08311); experiment: Cat-G beads, pH 3.5 eluate
[36] = biological target: human Cathepsin G (immobilized on agarose beads) (human) (UniProt P08311); experiment: Cat-G beads, pH 2.0 eluate
[37] = biological target: human Cathepsin G (immobilized on agarose beads) (human) (UniProt P08311); experiment: Cat-G beads, pH 3.0 eluate
[38] = biological target: anhydro-trypsin (agarose-immobilized) (UniProt P00760); experiment: 2 µl immobilized anhydro-trypsin slurry, 2 h
[39] = biological target: trypsin (active, immobilized on beads, or in solution) (UniProt P00760); experiment: trypsin beads, CBS pH 6.5, pH 2.2 elution
[40] = biological target: anhydro-trypsin (agarose-immobilized) (UniProt P00760); experiment: 2 µl immobilized anhydro-trypsin slurry, 4 h
[41] = biological target: streptavidin (agarose-immobilized) (UniProt P22629); experiment: 5 µl immobilized streptavidin slurry, 4 h
[42] = biological target: trypsin (active, immobilized on beads, or in solution) (UniProt P00760); experiment: trypsin beads, TBS pH 7.5, pH 2.2 elution
[43] = biological target: anhydro-trypsin (agarose-immobilized) (UniProt P00760); experiment: 2 µl immobilized anhydro-trypsin slurry, 1 h
[44] = biological target: streptavidin (agarose-immobilized) (UniProt P22629); experiment: 5 µl immobilized streptavidin slurry, 2 h
[45] = biological target: streptavidin (agarose-immobilized) (UniProt P22629); experiment: 5 µl immobilized streptavidin slurry, 1 h
[46] = biological target: anhydro-trypsin (agarose-immobilized) (UniProt P00760); experiment: 10 µl immobilized anhydro-trypsin slurry, 4 h
[47] = biological target: anhydro-trypsin (agarose-immobilized) (UniProt P00760); experiment: 5 µl immobilized anhydro-trypsin slurry, 1 h
[48] = biological target: anhydro-trypsin (agarose-immobilized) (UniProt P00760); experiment: 5 µl immobilized anhydro-trypsin slurry, 4 h
[49] = biological target: M13mp18 phage (wild type, non-display phage); experiment: titer after normal rabbit IgG + protein A beads
[50] = biological target: M13MB48 phage (BPTI fused to the mature M13 gene VIII major coat protein) (Bos taurus / phage M13); experiment: titer after normal rabbit IgG; batch 4
[51] = biological target: M13MB48 phage (BPTI fused to the mature M13 gene VIII major coat protein) (Bos taurus / phage M13); experiment: titer after normal rabbit IgG; batch 5
[52] = biological target: M13MB48 phage (BPTI fused to the mature M13 gene VIII major coat protein) (Bos taurus / phage M13); experiment: titer after normal rabbit IgG + protein A beads; batch 4
[53] = biological target: M13MB48 phage (BPTI fused to the mature M13 gene VIII major coat protein) (Bos taurus / phage M13); experiment: titer after normal rabbit IgG + protein A beads; batch 5
[54] = biological target: M13mp18 phage (wild type, non-display phage); experiment: titer after normal rabbit IgG

streptavidin (agarose-immobilized), sequence (P22629 37-163 limits assumed): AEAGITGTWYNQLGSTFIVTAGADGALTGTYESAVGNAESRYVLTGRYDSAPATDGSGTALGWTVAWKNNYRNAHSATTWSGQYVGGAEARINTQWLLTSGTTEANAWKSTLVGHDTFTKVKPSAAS
human neutrophil elastase (immobilized on Reacti-Gel agarose beads, or free) (human), sequence (P08246 30-247 limits assumed): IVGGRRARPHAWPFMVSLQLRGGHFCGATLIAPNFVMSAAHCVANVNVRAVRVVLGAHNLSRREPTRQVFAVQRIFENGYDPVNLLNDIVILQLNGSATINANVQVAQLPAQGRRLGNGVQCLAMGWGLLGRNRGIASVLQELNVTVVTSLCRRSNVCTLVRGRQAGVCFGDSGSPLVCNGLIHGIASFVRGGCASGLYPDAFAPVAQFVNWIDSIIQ
human Cathepsin G (immobilized on agarose beads) (human), sequence (P08311 21-244 limits assumed): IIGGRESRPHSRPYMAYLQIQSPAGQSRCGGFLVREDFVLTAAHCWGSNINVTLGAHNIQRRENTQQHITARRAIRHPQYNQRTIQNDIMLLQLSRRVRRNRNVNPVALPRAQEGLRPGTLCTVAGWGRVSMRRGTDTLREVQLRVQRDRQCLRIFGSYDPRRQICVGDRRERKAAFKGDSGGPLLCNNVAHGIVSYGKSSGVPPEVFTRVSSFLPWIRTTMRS
trypsin (active, immobilized on beads, or in solution), sequence (P00760 24-246): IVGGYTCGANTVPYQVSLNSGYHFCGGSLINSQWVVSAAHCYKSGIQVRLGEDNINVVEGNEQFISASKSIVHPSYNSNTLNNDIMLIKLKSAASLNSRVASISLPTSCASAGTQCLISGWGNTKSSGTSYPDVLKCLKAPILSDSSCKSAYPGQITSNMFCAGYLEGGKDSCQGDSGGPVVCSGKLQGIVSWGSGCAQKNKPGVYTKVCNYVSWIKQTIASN

Work on “BPTI(K15V,R17L)-III MA phage (designed binder)” yielded a pH of elution peak [1] of 4.25 pH.
In the case of “BPTI-III MK phage (M13 phage displaying mature BPTI fused to the gene III protein)”, the percent of total phage recovered in elution buffer [2] is reported as 50%, the percentage of input phage recovered (all fractions) [3] is reported as 0.008% and the percent residual titer [4] is reported as 40%. The percent of total phage recovered in elution buffer [5] was 5%, the % of input phage [6] was 0.001% and the total pfu in fraction [6] was 30000 pfu. The relative binding (to M13MP18) [7] was 5000 fold, the percent of total phage recovered in elution buffer [8] was 20% and the % of input phage [9] was 0.002%. It also gave a total pfu in fraction [9] of 50000 pfu, an eluted phage, % of input [10] of 0.005% and a relative binding (to M13MP18) [11] of 2000 fold. It also gave a percent residual titer [12] of 40%, a percent residual titer [13] of 30% and a % of input phage recovered [14] of 0.005%. It also gave a binding relative to M13mp18 [15] of 40 fold and an eluted phage, % of input [16] of 1%.
For “M13.3X7 phage (BPTI:VIII fusion with one EGGGS linker)”, the eluted phage, % of input [10] was 0.001%.
Work on “M13.3X11 phage (BPTI:VIII fusion with three linker units)” yielded a relative binding (to M13MP18) [17] of 92 fold, a relative binding (to M13MP18) [7] of 1200 fold and an eluted phage, % of input [18] of 0.27%. For the same substance, the eluted phage, % of input [10] was 0.002%, the relative binding (to M13MP18) [19] was 6.7 fold and the relative binding (to M13MP18) [11] was 1600 fold. For the same substance, the eluted phage, % of input [20] was 9.2% and the eluted phage, % of input [16] was 0.8%.
Substance “M13MB48 phage (BPTI fused to the mature M13 gene VIII major coat protein)” has a % of input pfu [21] of 58%, a binding relative to M13MP18 [22] of 56 fold and an eluted phage, % of input [23] of 11.2%. For the same substance, the eluted phage, % of input [10] was 0.009%, the % of input pfu post incubation [24] was 58% and the relative binding (to M13MP18) [19] was 30 fold. For the same substance, the relative binding (to M13MP18) [11] was 260 fold, the % of input pfu post incubation [25] was 98% and the eluted phage, % of input [16] was 0.13%.
“MA-ITI phage (M13 phage displaying human ITI domain I fused to the gene III protein) (from UniProt P02760 227-281)” showed a fraction of input [26] of 5e-06, a fraction of input [27] of 2.4e-06 and a fraction of input [28] of 5.9e-07. For the same substance, the fraction of input [29] was 2.6e-06, the fraction of input [30] was 9.6e-07 and the fraction of input [31] was 1.3e-05. It also gave a fraction of input, SUM of pH elution fractions [32] of 3e-05, a total pfu, SUM of pH elution fractions [32] of 1.4e+07 pfu and a fraction of input [33] of 1.5e-06. It also gave a fraction of input [34] of 1.5e-05, a total pfu in sample [34] of 7.1e+06 pfu and a fraction of input [35] of 9.6e-07. For the same substance, the fraction of input [36] was 7e-07 and the fraction of input [37] was 7.8e-07.
For “MK phage (M13-MB1/2-delta-NarI with kanamycin-resistance gene; no displayed domain)”, the percent residual titer [38] was 103%, the % of input phage recovered [39] was 0.00028% and the total pfu recovered in elution buffer [39] was 1.35e+06 pfu. It also gave a percent residual titer [40] of 95%, a percent residual titer [41] of 98% and a % of input phage recovered [42] of 0.00034%. It also gave a total pfu recovered in elution buffer [42] of 1.48e+06 pfu, a percent residual titer [43] of 97% and a percent residual titer [4] of 111%. For the same substance, the percent residual titer [44] was 96%, the percent residual titer [12] was 99% and the percent residual titer [45] was 106%. For the same substance, the percent residual titer [13] was 93%, the percent residual titer [46] was 106% and the percent residual titer [47] was 110%. The percent residual titer [48] was 96%.
“normal rabbit serum / IgG purified from normal rabbit pre-immune serum (antibody)” gave a % of input pfu [49] of 88%, a % of input pfu [50] of 125% and a % of input pfu [51] of 105%. For the same substance, the % of input pfu [52] was 121%, the % of input pfu [53] was 110% and the % of input pfu [54] was 104%.
